The source of these data is patent US20020128178A1, “Use of growth hormone or a growth hormone secretagogue for promoting bone formation” (priority 1996, published 2002).

For assay [1], the system named is fracture-healing in rabbits. Particulars: no distraction; cited from earlier work.
Assay [2] relates to distracted tibia (callus distraction) of Yucatan mini-pigs. Description: Mechanical torsion testing of distracted tibia after callus distraction in GH-treated mini-pigs. It counts as in vivo, Yucatan mini-pig. The note with it: at sacrifice. On the procedure:
After sacrifice, the right and left limb were dissected. The soft tissue around the joints was removed, and the ends of the tibia were casted in Beracryl. The constructs were placed in a materials testing machine (Zwick, Ulm, Germany), and torsional moments were applied. Resulting displacements and torsional moments were recorded. The test was conducted with a speed of 30° per minute until failure. The system automatically terminated the test at a torque of 20%.
The final bone torsional strength of a mini-pig group treated with growth hormone was investigated relative to a control group.
30 mature female Yucatan mini-pigs were equally distributed into two treatment groups. Mini-pigs in the study group received a daily injection of recombinant porcine growth hormone (r-pGH: 100 μg/kg), the mini-pigs in the control group received sodium chloride as placebo. The left tibiae and fibulae were osteotomized and stabilized with an external fixator. Full weight bearing was permitted. The legs were distracted twice daily at 2 mm/day for 10 days and then allowed to consolidate for 10 days. After sacrifice, torsional moments were applied to the distracted and the contralateral tibia in a material testing machine and the maximum torsional moment was determined. Four animals were removed from the study due to bone infection or surgery failure and data of 2 animals were lost due to test machine failure. A t-test was used to determine differences in maximum torsional moments between the treatment groups.

A further assay relates to healing fracture in dogs. The note with it: compared to non-treated dogs; cited from earlier work.

With growth hormone, in assay [1], the effect on fracture-healing entry is “no effect”.

B1: GH: recombinant porcine growth hormone (r-pGH), homologous GH injected daily at 100 μg/kg in mini-pigs (protein, UniProt P01248 27-216, looked up)
Somatotropin: FPAMPLSSLFANAVLRAQHLHQLAADTYKEFERAYIPEGQRYSIQNAQAAFCFSETIPAPTGKDEAQQRSDVELLRFSLLLIQSWLGPVQFLSRVFTNSLVFGTSDRVYEKLKDLEEGIQALMRELEDGSPRAGQILKQTYDKFDTNLRSDDALLKNYGLLSCFKKDLHKAETYLRVMKCRRFVESSCAF
As to B1, the “maximum torsional moment of distracted tibia” value in assay [2] (r-pGH 100 μg/kg daily injection, distraction 2 mm/day for 10 days, consolidation 10 days, p=0.001 vs placebo) was found to be 19.5±7.8 Nm. The “maximum torsional moment in comparison to the intact contralateral tibia” value in assay [2] (r-pGH 100 μg/kg daily, p<0.001 vs control) stood at 64±22.4%. In addition, the “higher maximum torsional moment than placebo group” value in assay [2] (r-pGH 100 μg/kg daily, versus placebo group) is recorded as 131%.

B2: cST: canine somatotropin given to dogs in the study of Buonomo et al. (protein, UniProt P33711 27-216, looked up)
Somatotropin: FPAMPLSSLFANAVLRAQHLHQLAADTYKEFERAYIPEGQRYSIQNAQAAFCFSETIPAPTGKDEAQQRSDVELLRFSLLLIQSWLGPVQFLSRVFTNSLVFGTSDRVYEKLKDLEEGIQALMRELEDGSPRAGQILKQTYDKFDTNLRSDDALLKNYGLLSCFKKDLHKAETYLRVMKCRRFVESSCAF
Consider B2, for which, in the assay with healing fracture in dogs, the “increase of stiffness of the healing fracture” value is on record as 5 fold and the “increase of strength of the healing fracture” value is recorded as 3 fold.
